In article PMC11718114 (Nature Communications, 2025):
Values belong to the binder of their own block, whether it stands above or below them.

Legend:
Settings in all cases: both partners purified
[1] = molecular target: T1, PI3Kα-RBD, PIK3CA-RBD(157-289) (human, UniProt P42336 157-289); assay: ITC; RAS GTPase (GMPPNP-bound, 300–500 μM) in the syringe, PI3K isoform or PI3Kα-RBD (30–50 μM) in the cell; 25 °C; 20 mM HEPES pH 7.4, 150 mM NaCl, 5 mM MgCl2, 1 mM TCEP; one set of sites; two replicates
T1 construct: also called PI3Ka-RBD; p110α-RBD; source: E. coli, purified (IMAC, TEV cleavage, second IMAC, SEC); not shown: His6, N-terminal, cleaved; MBP, N-terminal, cleaved

[2] = molecular target: T2, PI3Kα: p110α(2-1068)W1057A/I1058A/F1059A + p85(322-600) (human, UniProt P42336 2-1068; P27986 322-600, W1057A | I1058A | F1059A); assay: as above
T2 construct: human PIK3CA (p110α), residues 2-1068; human PIK3R1 (p85α), residues 322-600 (nSH2-iSH2), untagged; also called PI3Ka; PI3Kα (p110α + p85); source: insect cells (baculovirus), co-expressed, purified (IMAC, TEV cleavage, second IMAC, anion exchange, SEC); not shown: His6, N-terminal, cleaved; MBP, N-terminal, cleaved

[3] = molecular target: T3, PI3Kα-RBD (PIK3CA-RBD(157-289)) (human, UniProt P42336 157-289); assay: ITC; GMPPNP-bound RAS (300–500 μM) in the syringe, PI3K isoform or PI3Kα-RBD (30–50 μM) in the cell; 25 °C; 20 mM HEPES pH 7.4, 150 mM NaCl, 5 mM MgCl2, 1 mM TCEP; one set of sites; duplicates
T3 construct: also called p110α-RBD; p110α RBD; source: E. coli, purified (IMAC, TEV cleavage, second IMAC, SEC); not shown: His6, N-terminal, cleaved; MBP, N-terminal, cleaved

[4] = molecular target: T4, PI3Kα: p110α(2-1068) W1057A/I1058A/F1059A + p85(322-600) (human, UniProt P42336 2-1068; P27986 322-600, W1057A | I1058A | F1059A); assay: as above
T4 construct: PIK3CA (p110α, catalytic subunit of PI3Kα), human, residues 2-1068; PIK3R1 (p85α regulatory subunit), human, residues 322-600 (nSH2-iSH2), untagged; also called PIK3CA(2-1068)W1057A/I1058A/F1059A + PIK3R1(322-600); p110α/p85; source: insect cells (baculovirus), co-expressed, purified (IMAC, TEV cleavage, second IMAC, anion exchange, SEC); not shown: His6, N-terminal, cleaved; MBP, N-terminal, …

Kd [1]: 4.9 µM
stoichiometry N [1]: 1.12 sites
Kd [2]: 2100 nM
stoichiometry N [2]: 0.95 sites
B1: RRAS2(1-179)-Q36A, GMPPNP-bound (domain or fragment, human, UniProt P62070 1-179, looked up)
chain: MAAAGWRDGSGQEKYRLVVVGGGGVGKSALTIQFIASYFVTDYDPTIEDSYTKQCVIDDRAARLDILDTAGQEEFGAMREQYMRTGEGFLLVFSVTDRGSFEEIYKFQRQILRVKDRDEFPMILIGNKADLDHQRQVTQEEGQQLARQLKVTYMEASAKIRMNVDQAFHELVRVIRKFQ
notes: limits for the ITC are not separately stated; also called RRAS2-Q36A; source: E. coli, purified (IMAC, TEV cleavage, second IMAC, SEC); not shown: His6, N-terminal, cleaved; MBP, N-terminal, cleaved

fold increase in binding affinity against wild-type RRAS2 [3]: 2 fold
B2: RRAS2(1-179)-Q36A (domain or fragment, human, UniProt P62070 1-179, looked up)
chain: B1 chain
notes: RRAS2 (TC21), human, residues 1-179; Limits 1-179 are stated for the crystals; also called RRAS2-Q36A; source: E. coli, purified (IMAC, TEV cleavage, second IMAC, SEC); exchanged to GMPPNP; not shown: His6, N-terminal, cleaved; MBP, N-terminal, cleaved

binding result [4]: binds
binding result [3]: binds
B3: RRAS(22-192) (domain or fragment, human, UniProt P10301 22-192, looked up)
chain: GDPPPSETHKLVVVGGGGVGKSALTIQFIQSYFVSDYDPTIEDSYTKICSVDGIPARLDILDTAGQEEFGAMREQYMRAGHGFLLVFAINDRQSFNEVGKLFTQILRVKDRDDFPVVLVGNKADLESQRQVPRSEASAFGASHHVAYFEASAKLRLNVDEAFEQLVRAVRK
notes: source: E. coli, purified (IMAC, TEV cleavage, second IMAC, SEC); exchanged to GMPPNP; not shown: His6, N-terminal, cleaved; MBP, N-terminal, cleaved
